Test results taken from patent US20260250421A1 (BIOCYTOGEN PHARMACEUTICALS BEIJING, published 2026).

B1: 1A7 (antibody, human IgG1, V domains shown)
VH: QVQLVESGGGVVQPGRSLRLSCAASGFTFSNYGMHWVRQAPGKGLEWVAVIYYDGSNKFYADSVKGRFTISRDNSKNTLYLQMSSLRAEDTAVYYCARDVAPPGSRAEYFHHWGQGTLVTVSS
VL: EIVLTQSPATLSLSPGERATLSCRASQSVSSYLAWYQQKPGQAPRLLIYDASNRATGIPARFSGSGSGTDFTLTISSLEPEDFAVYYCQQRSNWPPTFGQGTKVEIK
notes: also called anti-PTK7 antibody 1A7
B2: 2A5 (antibody, V domains shown)
VH: QVQLVQSGGGVVQPGRSLRLSCAASGFTFSNYGMHWVRQAPGKGLEWVAVIWYDGRNKYYADSVKGRFTISRDNSKNTLYLQMNSLRAEDTAVYYCARDVAPAGSRAEYFQNWGQGTLVTVSS
VL: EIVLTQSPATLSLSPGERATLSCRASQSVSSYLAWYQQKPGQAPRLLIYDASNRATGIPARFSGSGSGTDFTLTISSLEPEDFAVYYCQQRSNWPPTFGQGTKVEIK
notes: also called anti-PTK7 antibody 2A5
B3: 2D11 (antibody, V domains shown)
VH: QVQLVESGGGVVQPGRSLRLSCAASGFTFSSYGMHWVRQAPGKGLEWVAVIFYDGSNKYYADSVKGRFTISRDNSKNTLYLQMNSLRAEDTSVYYCARDVAAPGSRAEYFQNWGQGTLVTVSS
VL: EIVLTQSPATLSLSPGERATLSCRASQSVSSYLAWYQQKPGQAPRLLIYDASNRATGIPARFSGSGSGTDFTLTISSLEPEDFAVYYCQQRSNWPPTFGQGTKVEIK
notes: also called anti-PTK7 antibody 2D11
B4: 2F5 (antibody, V domains shown)
VH: QVQLVESGGGVVQPGRSLRLSCVASGFTFSNYGMHWVRQAPGKGLEWVAIIYYDGSNKYYADSVKGRFTISRDNSKNTLYLQMNSLRAEDTAVYYCARDVAAAGSRAEYLHHWGQGTLVTVSS
VL: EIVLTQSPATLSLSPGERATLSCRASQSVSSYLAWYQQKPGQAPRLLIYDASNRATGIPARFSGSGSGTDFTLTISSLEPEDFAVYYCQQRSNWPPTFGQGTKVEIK
notes: also called anti-PTK7 antibody 2F5
B5: 1A11 (antibody, V domains shown)
VH: QVQLVQSGPGLVKPSETLSLTCTVSGGSINSYYWNWIRQPPGKGLEWIGYIYYSGSTNYNPSLKSRVTISVDTSKNQFSLKLSSVTAADTAVYYCARDPHDYIRGHFDLWGRGTLFTVSS
VL: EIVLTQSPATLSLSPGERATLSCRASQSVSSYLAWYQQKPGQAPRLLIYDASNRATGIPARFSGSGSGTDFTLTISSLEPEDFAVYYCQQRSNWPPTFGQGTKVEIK
notes: also called anti-PTK7 antibody 1A11
B6: 1F2 (antibody, V domains shown)
VH: QVQLVQSGGGLVQPGGSLRLSCAASGFTFSRYEMNWVRQAPGKGLEWVSYINSIGSAINYADSVKGRFTISRDNAKNSLYLQMRSLRAEDTAVYYCVREDNWNPGYWGQGTLVTVSS
VL: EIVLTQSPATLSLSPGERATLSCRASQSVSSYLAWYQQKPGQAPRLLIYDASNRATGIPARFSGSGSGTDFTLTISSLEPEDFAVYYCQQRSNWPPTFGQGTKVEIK
notes: also called anti-PTK7 antibody 1F2
B7: 3C4 (antibody, V domains shown)
VH: QVQLEQSRAEVKKPGESLRISCKGSGYSFTSYWISWVRQMPGKGLEWMGRIDPSDSYTNYNPSFQGHVTISADKSISTAYLQWSSLKASDTAMYYCARRDGSYFDFDYWGQGTLVTVSS
VL: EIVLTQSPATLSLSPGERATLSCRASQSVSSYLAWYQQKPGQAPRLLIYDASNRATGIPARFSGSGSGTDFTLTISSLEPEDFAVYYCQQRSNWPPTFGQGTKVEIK
notes: also called anti-PTK7 antibody 3C4
B8: 3E6 (antibody, V domains shown)
VH: QVQLVESGAEVKKPGESLRISCRGSGYSFTSYWISWVRQMPGKGLEWMGRIDPSDSYTKYSPSFQGHVTISADKSISTAYLQWSSLKASDTAMYYCARRDGDYFDFDYWGQGTLVTVSS
VL: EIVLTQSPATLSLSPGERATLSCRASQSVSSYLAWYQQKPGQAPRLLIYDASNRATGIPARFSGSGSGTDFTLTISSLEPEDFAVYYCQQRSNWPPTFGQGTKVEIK
notes: also called anti-PTK7 antibody 3E6

Tests used:
[1] = target: T1, human PTK7 on human cancer cell lines (human, UniProt Q13308 31-1070); assay: flow cytometry, NCI-H520 cells, Ab 5 ug/mL
T1 construct: Endogenous PTK7 of human tumour cell lines; also called PTK7 on A-431, NCI-H520, NCI-N87, SK-OV-3, BT-20, HCC1954, NCI-H226, NCI-H358, HCT116, PC-3, NCI-H292, NCI-H1975 cells
T1 sequence: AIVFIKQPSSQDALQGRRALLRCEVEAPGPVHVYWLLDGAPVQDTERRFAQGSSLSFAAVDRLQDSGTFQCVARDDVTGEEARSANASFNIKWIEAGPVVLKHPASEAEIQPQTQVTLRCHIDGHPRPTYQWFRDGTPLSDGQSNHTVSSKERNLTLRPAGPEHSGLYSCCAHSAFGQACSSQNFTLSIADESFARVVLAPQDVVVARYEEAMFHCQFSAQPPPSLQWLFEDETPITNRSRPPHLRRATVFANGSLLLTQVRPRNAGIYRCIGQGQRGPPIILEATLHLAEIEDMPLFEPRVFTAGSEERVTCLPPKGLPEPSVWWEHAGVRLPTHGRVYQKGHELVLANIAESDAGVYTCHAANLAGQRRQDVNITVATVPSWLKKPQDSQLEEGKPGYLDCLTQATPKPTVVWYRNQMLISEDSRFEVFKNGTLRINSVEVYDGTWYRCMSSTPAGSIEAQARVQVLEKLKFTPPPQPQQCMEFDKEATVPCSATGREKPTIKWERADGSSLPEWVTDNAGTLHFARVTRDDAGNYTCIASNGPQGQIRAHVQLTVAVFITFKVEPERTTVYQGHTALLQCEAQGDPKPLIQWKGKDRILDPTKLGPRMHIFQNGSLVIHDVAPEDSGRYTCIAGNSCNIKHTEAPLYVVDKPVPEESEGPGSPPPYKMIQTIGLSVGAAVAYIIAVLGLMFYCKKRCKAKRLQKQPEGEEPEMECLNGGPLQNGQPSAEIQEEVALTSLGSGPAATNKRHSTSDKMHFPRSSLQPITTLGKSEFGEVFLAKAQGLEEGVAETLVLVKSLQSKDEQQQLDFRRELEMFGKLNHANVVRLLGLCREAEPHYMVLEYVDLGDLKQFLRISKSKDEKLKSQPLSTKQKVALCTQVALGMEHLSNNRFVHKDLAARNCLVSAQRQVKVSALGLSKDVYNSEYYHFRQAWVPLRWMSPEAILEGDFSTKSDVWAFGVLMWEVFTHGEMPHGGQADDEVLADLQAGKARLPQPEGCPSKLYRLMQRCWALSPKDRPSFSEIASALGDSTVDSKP
Procedure: (§1) The binding activity of anti-PTK7 antibodies to cancer cell lines was verified by flow cytometry. […] Purified anti-PTK7 antibody with a concentration of 5 μg/mL was added to each well and was incubated at 4° C. for 30 minutes. […] The cells were collected, and the mean fluorescence intensity (MFI) was determined. Human IgG1 was used as ISO control.

[2] = target: T1, human PTK7 on human cancer cell lines; assay: flow cytometry, BT-20 cells, Ab 5 ug/mL
Procedure: as §1

[3] = target: T1, human PTK7 on human cancer cell lines; assay: flow cytometry, HCC1954 cells, Ab 5 ug/mL
Procedure: as §1

[4] = target: T1, human PTK7 on human cancer cell lines; assay: flow cytometry, HCT116 cells, Ab 5 ug/mL
Procedure: as §1

[5] = target: T1, human PTK7 on human cancer cell lines; assay: flow cytometry, NCI-H226 cells, Ab 5 ug/mL
Procedure: as §1

[6] = target: T1, human PTK7 on human cancer cell lines; assay: flow cytometry, NCI-N87 cells, Ab 5 ug/mL
Procedure: as §1

[7] = target: T1, human PTK7 on human cancer cell lines; assay: flow cytometry, NCI-H292 cells, Ab 5 ug/mL
Procedure: as §1

Binder | MFI [1] | MFI [2] | MFI [3] | MFI [4] | MFI [5] | MFI [6] | MFI [7]
B1 | 190000 | 86200 | 118000 | 115000 | 80200 | 75700 | 43500
B2 | 283000 | 137000 | 179000 | 234000 | 141000 | 152000 | 92000
B3 | 312000 | 172000 | 211000 | 287000 | 180000 | 217000 | 134000
B4 | 199000 | 83800 | 121000 | 133000 | 80900 | 69400 | 44500
B5 | 296000 | 136000 | 172000 | 260000 | 152000 | 158000 | 125000
B6 | 216000 | 50900 | 99100 | 149000 | 94900 | 108000 | 69300
B7 | 282000 | 148000 | 187000 | 230000 | 167000 | 139000 | 92400
B8 | 310000 | 152000 | 207000 | 339000 | 193000 | 180000 | 141000
